Test results taken from patent publication US20120052069A1 (Amgen, published 2012).

Biological target: β-Klotho overexpressed in recombinant human 293T kidney cells
Test: cell-based or functional assay

B1: human FGF21 (wild-type mature FGF21) (ligand)
chain: HPIPDSSPLLQFGGQVRQRYLYTDDAQQTEAHLEIREDGTVGGAADQSPESLLQLKALKPGVIQILGVKTSRFLCQRPDGALYGSLHFDPEACSFRELLLEDGYNVYQSEAHGLPLHLPGNKSPHRDPAPRGPARFLPLPGLPPAPPEPPGILAPQPPDVGSSDPLSMVGPSQGRSPSYAS
With B1 the “EC50 (nM), ELK luciferase assay” value was 0.4 nM and the “Efficacy, ELK luciferase assay” value was 100%.
